From PMC12795676, “Integrin α5β1 mediates the inhibitory effects of vasoinhibin on angiogenesis and vascular permeability [drawing 1]” (The Journal of Biological Chemistry, 2025) come the findings set out here.

This assay concerns the target T1, integrin α5β1 (Homo sapiens, UniProt P05556+P08648).
T1 construct: purchased Bio-Techne
Kind of assay: ELISA, binding to immobilized integrin α5β1. Particulars: 100 nM mutant, compared with Vi. On the procedure: Vi ([49]) and its mutants were produced as reported ([14]). HUVECs were cultured as reported ([14], [50]).
Plates coated with 2 μg mL^−1 integrin α5β1, PAI-1, or PAI-1-uPA complex (37 °C, 10 min) were incubated with B-Vi45-51, Vi, or 100 nM ViH46A, ViR48A, or ViH46A/R48A. Competition used excess Src, alanine mutants, or THGR peptides. Detection used horseradish peroxidase antibodies and 3,3′,5,5′-tetramethylbenzidine.
Background: An ELISA detects its analyte on a solid surface through an enzyme-linked reagent.

T1 sequence (P08648 42-995 limits assumed): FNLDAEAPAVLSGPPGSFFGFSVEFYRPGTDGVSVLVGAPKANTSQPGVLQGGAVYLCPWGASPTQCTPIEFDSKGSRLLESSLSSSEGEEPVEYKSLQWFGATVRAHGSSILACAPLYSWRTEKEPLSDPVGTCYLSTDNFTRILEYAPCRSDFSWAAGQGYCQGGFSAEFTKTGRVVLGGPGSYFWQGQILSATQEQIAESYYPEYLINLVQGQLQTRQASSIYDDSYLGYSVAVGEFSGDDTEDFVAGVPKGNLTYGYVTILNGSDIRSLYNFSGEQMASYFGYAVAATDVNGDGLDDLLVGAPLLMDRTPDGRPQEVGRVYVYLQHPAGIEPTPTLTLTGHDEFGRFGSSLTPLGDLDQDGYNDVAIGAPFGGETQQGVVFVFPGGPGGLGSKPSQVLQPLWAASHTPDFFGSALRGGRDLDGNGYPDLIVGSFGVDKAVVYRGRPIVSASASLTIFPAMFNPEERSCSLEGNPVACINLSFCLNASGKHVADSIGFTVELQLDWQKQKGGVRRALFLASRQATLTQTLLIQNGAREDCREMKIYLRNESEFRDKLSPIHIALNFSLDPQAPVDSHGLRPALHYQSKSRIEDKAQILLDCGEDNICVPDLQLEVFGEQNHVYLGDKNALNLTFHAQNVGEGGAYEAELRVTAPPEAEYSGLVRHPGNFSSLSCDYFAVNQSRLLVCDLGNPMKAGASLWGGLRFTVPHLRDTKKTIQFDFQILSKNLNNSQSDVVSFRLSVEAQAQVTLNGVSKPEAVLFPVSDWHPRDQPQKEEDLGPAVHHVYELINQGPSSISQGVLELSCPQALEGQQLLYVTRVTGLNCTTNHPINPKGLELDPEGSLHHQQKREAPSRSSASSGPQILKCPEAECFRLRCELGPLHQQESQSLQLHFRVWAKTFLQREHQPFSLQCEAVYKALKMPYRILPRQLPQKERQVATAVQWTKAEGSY
T1 sequence (P05556 21-728 limits assumed): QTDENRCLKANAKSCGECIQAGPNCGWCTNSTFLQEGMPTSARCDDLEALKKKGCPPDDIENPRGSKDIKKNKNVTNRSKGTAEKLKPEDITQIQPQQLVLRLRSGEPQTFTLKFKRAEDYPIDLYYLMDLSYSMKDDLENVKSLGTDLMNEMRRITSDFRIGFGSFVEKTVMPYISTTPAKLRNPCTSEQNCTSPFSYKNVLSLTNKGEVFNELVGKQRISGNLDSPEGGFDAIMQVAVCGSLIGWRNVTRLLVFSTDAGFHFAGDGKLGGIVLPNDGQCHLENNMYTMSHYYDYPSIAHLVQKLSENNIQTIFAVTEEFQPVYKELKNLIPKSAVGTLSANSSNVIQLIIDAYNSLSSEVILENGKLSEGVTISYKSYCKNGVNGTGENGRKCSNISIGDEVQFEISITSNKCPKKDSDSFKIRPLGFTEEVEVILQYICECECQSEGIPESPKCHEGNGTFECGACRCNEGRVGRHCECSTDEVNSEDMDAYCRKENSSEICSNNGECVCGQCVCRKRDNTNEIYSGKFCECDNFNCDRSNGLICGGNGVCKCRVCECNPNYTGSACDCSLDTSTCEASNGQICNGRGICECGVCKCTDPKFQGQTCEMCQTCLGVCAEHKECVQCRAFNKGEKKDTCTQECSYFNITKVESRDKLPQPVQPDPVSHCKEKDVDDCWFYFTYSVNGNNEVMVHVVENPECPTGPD

B1: Vi-H46A: Vi mutant H46A (protein)
chain: LPICPGGAARCQVTLRDLFDRAVVLSHYIHNLSSEMFSEFDKRYTAGRGFITKAINSCHTSSLATPEDKEQAQQMNQKDFLSLIVSILRSWNEPLYHLVTEVRGMQEAPEAILSKAVEIEEQTKRLLEGMELIVSQVHPETKENEIYPVWSGLPSLQMADEESRLSAYYNLLHCLRRDSHKIDNYLKLLKCRIIHNNNC
Take B1: the “Integrin α5β1 binding of Vi mutants” value is reported as “reduced integrin binding”.

B2: Vi-H46A/R48A: Vi double mutant H46A/R48A (protein)
chain: LPICPGGAARCQVTLRDLFDRAVVLSHYIHNLSSEMFSEFDKRYTAGAGFITKAINSCHTSSLATPEDKEQAQQMNQKDFLSLIVSILRSWNEPLYHLVTEVRGMQEAPEAILSKAVEIEEQTKRLLEGMELIVSQVHPETKENEIYPVWSGLPSLQMADEESRLSAYYNLLHCLRRDSHKIDNYLKLLKCRIIHNNNC
As to B2, the “Integrin α5β1 binding of Vi mutants” value is on record as “reduced integrin binding”.

B3: Vi-R48A: Vi mutant R48A (protein)
chain: LPICPGGAARCQVTLRDLFDRAVVLSHYIHNLSSEMFSEFDKRYTHGAGFITKAINSCHTSSLATPEDKEQAQQMNQKDFLSLIVSILRSWNEPLYHLVTEVRGMQEAPEAILSKAVEIEEQTKRLLEGMELIVSQVHPETKENEIYPVWSGLPSLQMADEESRLSAYYNLLHCLRRDSHKIDNYLKLLKCRIIHNNNC
Turning to B3, the “Integrin α5β1 binding of Vi mutants” value is recorded as “reduced integrin binding”.
